Reference: the supplement of paper PMC10567573

B1: CDKN1A (parent)
chain: RRQTSMTDFYHSKRRLIFSKRKP
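Note: lentivirally expressed fusions sorted by FACS into six bins by GFP to DsRed ratio, PSI derived from sequencing read proportions per bin multiplied by bin number.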

Variants of: B1
Assay: protein stability index of a GFP-peptide fusion (GPS, HEK-293T) (PSI 1-6); higher = more stable
Settings: c terminus: native
Variant RRQTSMTDFYHSKRTLIFSKRKP has a protein stability index of 2.34.
With RRQTSMTDFYHSKRMLIFSKRKP the protein stability index was 3.54.
In the case of RRQTSMTDFYHSKRALIFSKRKP, the protein stability index is reported as 2.94.
For RRQTSMTDFYHSKRILIFSKRKP, the protein stability index was 3.
For RRQTSMTDFYHSKRDLIFSKRKP, the protein stability index was 3.82.
With RRQTSMTDFYHSKRCLIFSKRKP the protein stability index was 3.8.
RRQTSMTDFYHSKRLLIFSKRKP showed a protein stability index of 2.47.
In the case of RRQTSMTDFYHSKRQLIFSKRKP, the protein stability index is reported as 2.41.
RRQTSMTDFYHSKRPLIFSKRKP gave a protein stability index of 2.52.
In the case of RRQTSHTDFYHSKRRLIFSKRKP, the protein stability index is reported as 2.36.
Work on RRQTSWTDFYHSKRRLIFSKRKP yielded a protein stability index of 2.56.
For RRQTSATDFYHSKRRLIFSKRKP, the protein stability index was 2.57.
For RRQTSYTDFYHSKRRLIFSKRKP, the protein stability index was 1.92.
With RRQTSPTDFYHSKRRLIFSKRKP the protein stability index was 1.34.
In the case of RRQTSLTDFYHSKRRLIFSKRKP, the protein stability index is reported as 2.93.
Variant RRQTSKTDFYHSKRRLIFSKRKP has a protein stability index of 3.44.
For RRQTSFTDFYHSKRRLIFSKRKP, the protein stability index was 2.03.
With RRQTSNTDFYHSKRRLIFSKRKP the protein stability index was 3.37.
Work on RRQTSDTDFYHSKRRLIFSKRKP yielded a protein stability index of 1.96.
For RRQTSITDFYHSKRRLIFSKRKP, the protein stability index was 2.14.
Variant RRQTSMTDFCHSKRRLIFSKRKP has a protein stability index of 1.4.
In the case of RRQTSMTDFVHSKRRLIFSKRKP, the protein stability index is reported as 2.77.
RRQTSMTDFAHSKRRLIFSKRKP showed a protein stability index of 3.44.
In the case of RRQTSMTDFKHSKRRLIFSKRKP, the protein stability index is reported as 1.57.
With RRQTSMTDFEHSKRRLIFSKRKP the protein stability index was 2.83.
RRQTSMTDFQHSKRRLIFSKRKP showed a protein stability index of 2.75.
In the case of RRQTSMTDFNHSKRRLIFSKRKP, the protein stability index is reported as 1.72.
With RRQTSMTDFMHSKRRLIFSKRKP the protein stability index was 3.11.
In the case of RRQTSMTDFRHSKRRLIFSKRKP, the protein stability index is reported as 3.01.
RRQTSMTDFIHSKRRLIFSKRKP gave a protein stability index of 2.79.
In the case of RRQTSMTDFTHSKRRLIFSKRKP, the protein stability index is reported as 3.41.
In the case of RRQTSMTDFWHSKRRLIFSKRKP, the protein stability index is reported as 2.66.
RRQTSMTDFPHSKRRLIFSKRKP gave a protein stability index of 2.22.
Variant RRQTSMTDKYHSKRRLIFSKRKP has a protein stability index of 2.4.
With RRQTSMTDLYHSKRRLIFSKRKP the protein stability index was 2.24.
With RRQTSMTDRYHSKRRLIFSKRKP the protein stability index was 2.54.
Work on RRQTSMTDGYHSKRRLIFSKRKP yielded a protein stability index of 2.02.
With RRQTSMTDCYHSKRRLIFSKRKP the protein stability index was 2.71.
Work on RRQTSMTDTYHSKRRLIFSKRKP yielded a protein stability index of 2.25.
RRQTSMTDHYHSKRRLIFSKRKP gave a protein stability index of 4.22.
Variant RRQTSMTDDYHSKRRLIFSKRKP has a protein stability index of 2.72.
Variant RRQTSMTDVYHSKRRLIFSKRKP has a protein stability index of 2.43.
RRQTSMTDYYHSKRRLIFSKRKP showed a protein stability index of 3.43.
RRQTSMTDIYHSKRRLIFSKRKP gave a protein stability index of 3.36.
RRQTSMTDFYHIKRRLIFSKRKP gave a protein stability index of 3.96.
RRQTSMTDFYHFKRRLIFSKRKP gave a protein stability index of 1.59.
RRQTSMTDFYHEKRRLIFSKRKP showed a protein stability index of 2.92.
RRQTSMTDFYHYKRRLIFSKRKP showed a protein stability index of 2.15.
RRQTSMTDFYHGKRRLIFSKRKP gave a protein stability index of 2.07.
With RRQTSMTDFYHPKRRLIFSKRKP the protein stability index was 2.31.
RRQTSMTDFYHMKRRLIFSKRKP showed a protein stability index of 2.75.
In the case of RRQTSMTDFYHVKRRLIFSKRKP, the protein stability index is reported as 2.01.
For RRQTSMTDFYHCKRRLIFSKRKP, the protein stability index was 2.98.
With RRQTSMTDFYHAKRRLIFSKRKP the protein stability index was 2.99.
In the case of RRQTSMTDFYHWKRRLIFSKRKP, the protein stability index is reported as 2.39.
RRQTSMTDFYHNKRRLIFSKRKP showed a protein stability index of 3.42.
For RRQTSMTDFYHSGRRLIFSKRKP, the protein stability index was 1.81.
In the case of RRQTSMTDFYHSYRRLIFSKRKP, the protein stability index is reported as 2.37.
With RRQTSMTDFYHSERRLIFSKRKP the protein stability index was 3.4.
For RRQTSMTDFYHSVRRLIFSKRKP, the protein stability index was 2.27.
RRQTSMTDFYHSDRRLIFSKRKP gave a protein stability index of 2.39.
For RRQTSMTDFYHSHRRLIFSKRKP, the protein stability index was 1.75.
For RRQTSMTDFYHSFRRLIFSKRKP, the protein stability index was 2.44.
Variant RRQTSMTDFYHSNRRLIFSKRKP has a protein stability index of 2.55.
RRQTSMTDFYHSTRRLIFSKRKP showed a protein stability index of 2.31.
With RRQTSMTDFYHSARRLIFSKRKP the protein stability index was 3.
Work on RRQTSMTDFYHSWRRLIFSKRKP yielded a protein stability index of 2.83.
RRQTSMTDFYHSQRRLIFSKRKP gave a protein stability index of 1.8.
Work on RRQTSMTDFYHSIRRLIFSKRKP yielded a protein stability index of 2.36.
Variant RRQTSMTDFYHSSRRLIFSKRKP has a protein stability index of 3.39.
With RRQTSMTDFYHSCRRLIFSKRKP the protein stability index was 3.33.
Variant RRQTSMTDFYHSPRRLIFSKRKP has a protein stability index of 3.13.
For RRQTSMTDFYHSLRRLIFSKRKP, the protein stability index was 2.51.
For RRQTSMTDFYASKRRLIFSKRKP, the protein stability index was 2.49.
Variant RRQTSMTDFYLSKRRLIFSKRKP has a protein stability index of 3.32.
In the case of RRQTSMTDFYVSKRRLIFSKRKP, the protein stability index is reported as 1.43.
Work on RRQTSMTDFYDSKRRLIFSKRKP yielded a protein stability index of 1.65.
With RRQTSMTDFYGSKRRLIFSKRKP the protein stability index was 2.88.
Variant RRQTSMTDFYFSKRRLIFSKRKP has a protein stability index of 2.93.
Variant RRQTSMTDFYPSKRRLIFSKRKP has a protein stability index of 2.49.
RRQTSMTDFYKSKRRLIFSKRKP showed a protein stability index of 3.46.
In the case of RRQTSMTDFYYSKRRLIFSKRKP, the protein stability index is reported as 1.66.
RRQTSMTDFYNSKRRLIFSKRKP showed a protein stability index of 1.47.
RRQTSMTDFYSSKRRLIFSKRKP gave a protein stability index of 2.69.
RRQTSMTDFYISKRRLIFSKRKP gave a protein stability index of 2.03.
In the case of RRQTSMTDFYQSKRRLIFSKRKP, the protein stability index is reported as 2.55.
With RRQTSMTDFYESKRRLIFSKRKP the protein stability index was 2.37.
With RRQTSMTDFYHSKRRLIFSARKP the protein stability index was 2.73.
RRQTSMTDFYHSKRRLIFSFRKP showed a protein stability index of 2.31.
Variant RRQTSMTDFYHSKRRLIFSRRKP has a protein stability index of 2.21.
RRQTSMTDFYHSKRRLIFSERKP gave a protein stability index of 2.33.
For RRQTSMTDFYHSKRRLIFSNRKP, the protein stability index was 1.03.
Variant RRQTSMTDFYHSKRRLIFSMRKP has a protein stability index of 1.81.
Variant RRQTSMTDFYHSKRRLIFSYRKP has a protein stability index of 1.9.
In the case of RRQTSMTDFYHSKRRLIFSSRKP, the protein stability index is reported as 2.23.
Variant RRQTSMTDFYHSKRRLIFSVRKP has a protein stability index of 2.1.
In the case of RRQTSMTDFYHSKRRLIFSPRKP, the protein stability index is reported as 1.54.
